Measured values as given in the nanobody polyreactivity screen of Harvey et al. (2022).

Assay: yeast display, Sf9 membrane polyspecificity reagent, FACS + sequencing; frameworks hold sequencing errors
How it was run: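 Using colony PCR, genes from sorted yeast display clones were amplified, then sequenced on MiSeq at 2 × 250 and filtered by CDR length. The clones had been stained with 10% biotinylated, detergent-solubilized Sf9 membrane reagent for 1 hour at 4 °C and sorted by FACS into low and high (top ~1%) gates on anti-HA and streptavidin fluorescence. Polyreactivity labels come from the gate of origin.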

Row | Sequence | polyreactivity (PSR sort gate)
1 | QVQLVESGGGLVQAGGSLRLSCAASGSIFEYNAMGWYRQAPGKERELVAAISWSSGTTYYADSVKGRFTISRDNAKNTVYLQMNSLKPEDTAVNYCIAGRYGKDSDYWGQGTQVTVSS | low polyreactivity
2 | QVQLVESGGGLVQAGGSLRLSCAASGSIFEYNAMGWYRQAPGKERELVAAITDTGSITYYADSVKGRFTISRDNAKNTVYLQMNSLKPEDTAVYYCAARAYPATAVDRRQPGNYWGQGSQVTVSS | low polyreactivity
3 | QVQLVESGGGLVQAGGSLRLSCAASGSIFEYNDMGWYRQAPGKERELVAAITTGGRTSYADSVKGRFTISRDNAKNTVYLQMNSLKPEDTAVYYCAAEPPAEFWTDRLVDYYVGYDYWGQGTQVTVSS | low polyreactivity
4 | QVQLVESGGGLVQAGGSLRLSCAASGSIFFDGNAMGWYRQAPGKERELVAAINSGGTTKYADSVKGRFTISRDNAKNTVYLQMNSLKPEDTAVYYCNAREGVFRYPVAHDYWGQGTQVTVSS | low polyreactivity
5 | QVQLVESGGGLVQAGGSLRLSCAASGSIFFDGNAMGWYRQAPGKERELVAAISVSGGSTYYADSVKGRFTISRDNAKNTVYLQMNSLKPDDTAVYYCAKFPSKSYVPGDYWGQGTQVTVSS | low polyreactivity
6 | QVQLVESGGGLVQAGGSLRLSCAASGSIFFDGNAMGWYRQAPGKERELVAAISVSGGSTYYADSVKGRFTISRDNAKNTVYLQMNSVKPEDTAVYYCAKYPSKSYVPGDYWGQGTQVTVSS | low polyreactivity
7 | QVQLVESGGGLVQAGGSLRLSCAASGSIFFGNAMGWYRQAPGKERELVAAITRRGGSTYYADSVKGRFTISRDNEKNTVYLQMNSLKPEDTAVYYCKAVSKRYGYGYWGLGTQVTVSS | high polyreactivity
8 | QVQLVESGGGLVQAGGSLRLSCAASGSIFFGYAMGWYRQAPGKERELVAGISSNGGTTYYADSVKGRFTISRDYAKNTVYLQMNSLKPEDTAVYYCAKQYYARGYLYDYWGQGTQVTVSS | low polyreactivity
9 | QVQLVESGGGLVQAGGSLRLSCAASGSIFFGYGMGWYRQAPGKERELVATITTSGGTYYADSVKGRFTISRDNAKNTVYLQMNSLKPEDTAVYYCAATAAALDGNTIMYYWGQGTQVTVSS | low polyreactivity
10 | QVQLVESGGGLVQAGGSLRLSCAASGSIFFIYAMAWYRQAPGKERELVATISRSDVSTFYADSVKGRFTISRDNAKNTVYLQMNSLKPEDTAVYYCAARTGRGDRTRRYYYWGQGTQVTVSS | high polyreactivity
11 | QVQLVESGGGLVQAGGSLRLSCAASGSIFFLYAMGWYRQAPGKERELVAAISGGGGSTYYADSVKGRFTISRDNAKNTVYLQMNSLKPEDTAVYYCDALSKTRGGYWGQGTQVTVSS | high polyreactivity
12 | QVQLVESGGGLVQAGGSLRLSCAASGSIFFNNAMGWYRQAPGKERELVAAITTGGSTYYADSVKGRFTISRDNAKNTVYLQMNSLKPEDTAVYYCAAVVVYPYRLGYDYWGQGTQVTVSS | low polyreactivity
13 | QVQLVESGGGLVQAGGSLRLSCAASGSIFFNTMGWYIQAPGKERELVAAISRSGGSTYYADSVKGRFTISRDNAKNTVYLQMNSLKPEDTAVYYCNALRWSQYTYSSRLGHFDSWGQGTQVTVSS | high polyreactivity
14 | QVQLVESGGGLVQAGGSLRLSCAASGSIFFNTMGWYRQAPGKERELVAAISRSGGSTYYADSVKGRFTISRDNAKNTVYLQMNSLKPEDTAVYYCNALRWSQYTYSSRLGHFDSWGQGTQVTVSS | high polyreactivity
15 | QVQLVESGGGLVQAGGSLRLSCAASGSIFFPYAMGWYRQAPGKERELVARISWGAGRTYYADSVKGRFTISRDNAKNTVYLQMNSLKPEDTAVYYCAARDRTRYAGYNYWGQGTQVTVSS | high polyreactivity
16 | QVQLVESGGGLVQAGGSLRLSCAASGSIFFPYVMGWYRQAPGKERELVAAIRRGGGSTYYADSVKGRFTISRDNAKNTVYLQMNSLKPEDTAVYYCAAKGWYVQHFKRGLYNYWGQGTQVTVSS | high polyreactivity
17 | QVQLVESGGGLVQAGGSLRLSCAASGSIFFQNGMGWYRQAPGKERELVAAISSSGDSTYYADSVKGRFTISRDYAKNTVYLQMNSLKPEDTAVYYCAAEPEYVSGPYDYWGQGTQVTVSS | low polyreactivity
18 | QVQLVESGGGLVQAGGSLRLSCAASGSIFFQYGMGWYRQAPGKEREFVAAISVSGGSTYYADSVKGRFTISRDNAKNTVYLQMNSLKPEDTAVYYCAAEFRGDTTSLVYASSYDYWGQGTQVTVSS | low polyreactivity
19 | QVQLVESGGGLVQAGGSLRLSCAASGSIFFRNAMGWYRQAPGKEREFVAVINYSGGSTRYADSVKGRFTISRDNAKNTVYLQMNSLKPEDTAVYYCATRLYISKMYYWGQGTQVTVSS | high polyreactivity
20 | QVQLVESGGGLVQAGGSLRLSCAASGSIFFSNDMGWYRQAPGKERELVASITRDGTSTYADSVKGRFTISRDNAKNTVYLQMNSLKPEETAVYYCAADRYLQGFYGRWHGYDSWGQGTQVTVSS | low polyreactivity
21 | QVQLVESGGGLVQAGGSLRLSCAASGSIFFWYTMGWYRQAPGKERELVATITGSGSSTTYADSVKGRFTISRDNAKNTVYFQMNSLKPEDTAVYYCAAADIIDHSFPYDYWGQGTQVTVSS | low polyreactivity
22 | QVQLVESGGGLVQAGGSLRLSCAASGSIFFWYTMGWYRQAPGKERELVATITGSGSSTTYADSVKGRFTISRDNAKNTVYLQMNSLKPEDTAVYYCAAADIIDHSFPYDYWGQGTQVTVSS | low polyreactivity

Row | Sequence | polyreactivity (PSR sort gate)
23 | QVQLVESGGGLVQAGGSLRLSCAASGSIFFYAMGWYRQAPGKERELVADITYTGGSKYADSEKGRFTISRDNAKNTVYLQMNSLKPEETAVYSGATLDGGLFDDWGQGTQVTVSS | low polyreactivity
24 | QVQLVESGGGLVQAGGSLRLSCAASGSIFFYNVMGWYRQAPGKERELVAAITRSGGRTYYADSVKGRFTISRDNAKNNVYLQMNSLKPEDTAVYYCAAALGGKFDYWGQGTQVTVSS | high polyreactivity
25 | QVQLVESGGGLVQAGGSLRLSCAASGSIFFYYAMGWYRQAPGKERELVAAINWSGVNTYYADSVKGRFTISRDNAKNTVYLQMNSLKPEDTAVYYCNAVVSLTSYGYLGYRFDYWGQGTQVTVSS | low polyreactivity
26 | QVQLVESGGGLVQAGGSLRLSCAASGSIFFYYAMGWYRQAPGKERELVASISTDGSTYADSVKGRFTISRDNAKNTVYLQMNSLKPEDTAVYYCATRGAEAERFASYDFDYWGQGTQVTVSS | low polyreactivity
27 | QVQLVESGGGLVQAGGSLRLSCAASGSIFFYYAMGWYRQATGKERELVAAISIAGSTNYADSVKGRFTISRDNAKNTVYLQMNSLKPEDTAVYYCAKEYRWGQSQLDYWGQGTQVTVSS | low polyreactivity
28 | QVQLVESGGGLVQAGGSLRLSCAASGSIFFYYTMGWYRQAPGKERELVAAITWSGGSTYYADSVKGRFTISRDNAKNTVYLQMNSLKPEDTAVYYCAAGTRLYYYRLNYWGQGTQVTVSS | high polyreactivity
29 | QVQLVESGGGLVQAGGSLRLSCAASGSIFGANAMGWYRQAPGKERELVAAISTRGGRTYYADSVKARFTISRDNAKNTVSLQMNSLKPEDTALYYCAARRFSKVRSMYYWRQGTQVTVSS | high polyreactivity
30 | QVQLVESGGGLVQAGGSLRLSCAASGSIFGAYAMGWYRQAPGKEREFVAAISSRGGNTYYADSVKGRFTISRDNAKNTVYLQMNSLKPEDTAVYYAVFRYHWKYDYWGQGTQVTVSS | high polyreactivity
31 | QVQLVESGGGLVQAGGSLRLSCAASGSIFGAYAMGWYRQAPGKERELVAAISSGGSTYADSVKGRFTISRDNAKNTVYLQMNSMKPEDTAVYYCNAVFRARNYHYNPRRFKYYYWGQGTQVSVSS | high polyreactivity
32 | QVQLVESGGGLVQAGGSLRLSCAASGSIFGAYTMGWYRQAPGKEREFVAVISKGGTNTYYADSVKGRFTISRDNAKNTVYLQMNSLKPEDTAVYYCAARAYPTWRTYYYWGQGTQVTVSS | high polyreactivity
33 | QVQLVESGGGLVQAGGSLRLSCAASGSIFGDNAMGWYRQAPGKERELVATISSSDASTYYADSVKGRFTISRDNAKNTVYLQMNSLKPEDTSVYYCAAARSGGYDYWGQGTQVTVSS | low polyreactivity
34 | QVQLVESGGGLVQAGGSLRLSCAASGSIFGDYAMGWYRQAPGKERELVAAISRADGTYYADSVKGRFTISRDNAKNTVYLQMNSLKPEDTAVYYCATDYGIRSYYYSWYYVFTADDYWGQGTQVTVSS | low polyreactivity
35 | QVQLVESGGGLVQAGGSLRLSCAASGSIFGDYAMGWYRQAPGTDRELVATITWIGGSTYYADSVKGRFTISRDNAKNTVYCQMNSLKPEDTAVYYCAATKYVDVKYYYWGQGTQVTVSS | low polyreactivity
36 | QVQLVESGGGLVQAGGSLRLSCAASGSIFGDYDMGWYRQAPGKERELVAAITSGGSTDYADSVKGRFTISRDNAKNTVYLQMNRLKPEDTAVYYCAAEDKCGYFLFPFWLELDYWGQGTQVTVSS | low polyreactivity
37 | QVQLVESGGGLVQAGGSLRLSCAASGSIFGFYAMGWYRQAPGKERELVAVISVSDGSTYYADSVKGRFTISRDNAKNTVYLQMNCLKPEDTAVYYCAATPRGSYGYYYWGQGTQVTVSS | low polyreactivity
38 | QVQLVESGGGLVQAGGSLRLSCAASGSIFGGNAMGWYRQAPGKERELVAAITDGGNTNYADSVKGRFTISRDNAKNTVYLQINSLKPEDTAVYYCAARIPGTYGGRYGYDYWGQGTQVTVSS | low polyreactivity
39 | QVQLVESGGGLVQAGGSLRLSCAASGSIFGGYAMGGYRQAPGKERELFARITDRGGSTDYADSVKGRFTISRDNAKNTVYLQMNRLKPEDTAVYYCAKRGDRYEKRPRDYWGQGTQVTVSS | low polyreactivity
40 | QVQLVESGGGLVQAGGSLRLSCAASGSIFGGYAMGGYRQAPGKERELVAAISWSGDSTYYADSVKGRFTISRDNANNTDYLQMNSLKPEDTAVYYCAAYYLAWYAFRYKTVGSAMDYWGQGTQVTVSS | low polyreactivity
41 | QVQLVESGGGLVQAGGSLRLSCAASGSIFGGYAMGSYRQAPGKERELVAAISSGGTTNYADSVKGRFTISRDNAKNTVYLQMNSLKPEDTAVYYCAREYGPTYQSVPVKFIQLDYWGQGTQVTVSS | low polyreactivity
42 | QVQLVESGGGLVQAGGSLRLSCAASGSIFGGYAMGWYRQAPGKERELVAAISSGGSTYYADSVKGRFTISRDNAKNTVYLQMNSLKPEDTAVYYCATSTYAYRRNSYYYTRPRFGYWGQGTQVTVSS | high polyreactivity
43 | QVQLVESGGGLVQAGGSLRLSCAASGSIFGGYAMGWYRQAPGKERELVAAISYRGASTYYADSVKGRFTISRDNAKNTVYLQMNSLKPEDTAVYYCAVAARTRARVLYGYDYWGQGSQVTVSS | low polyreactivity
